Experimental data taken from the supplement of paper PMC9732359.
± gives the uncertainty stated by the source.

Assay: protein stability index of a GFP-peptide fusion (yeast GPS) (PSI 1-4); higher = more stable; sorted into four equal gates, so the index is relative within each strain
Method in brief: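 Plasmids isolated from each sorting gate were PCR-amplified and Illumina-sequenced, and barcodes assigned the reads to strains. The gates, four of equal size, were set by GFP/Cherry fluorescence ratio on mid-log cultures in leucine-free medium. These cultures were yeast carrying a pooled library of tiled 17-residue yeast protein peptides fused downstream of GFP on a plasmid that also expresses Cherry. The protein stability index is the sum of every gate's read frequency times its gate number.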

Row | Sequence | protein stability index (doa10∆) | protein stability index (pdr5∆) | protein stability index (san1∆) | protein stability index (ubr1∆)
1 | DKETQLKKRAVSGVELR [POP7] | 2.7 ± 0.21 | 2.57 ± 0.26 | 2.36 ± 0.18 | 2.27 ± 0.25
2 | DKILQLNDRFQTLSSHL [PGD1] | 2.46 ± 0.048 | 2.66 ± 0.042 | 2.55 ± 0.051 | 2.46 ± 0.058
3 | DKKLLRRLLNLYNDNNK [SWI1] | 2.48 ± 0.088 | 2.62 ± 0.072 | 2.57 ± 0.085 | 2.6 ± 0.068
4 | DKKQQTIDEQSQISPEK [RPN1] | 3.29 ± 0.11 | 3.46 ± 0.11 | 3.4 ± 0.063 | 3.26 ± 0.046
5 | DKKYKGLTTVWLLSALG [REC8] | 2.24 ± 0.054 | 2.38 ± 0.063 | 2.04 ± 0.084 | 2.29 ± 0.039
6 | DKLEKVTHDCYRVTLES [RPC34] | 3.37 ± 0.16 | 3.3 ± 0.06 | 3.25 ± 0.075 | 3.12 ± 0.085
7 | DKLINDVTAIQTWSYLS [ECM29] | 1.77 ± 0.04 | 1.78 ± 0.04 | 1.74 ± 0.087 | 1.83 ± 0.044
8 | DKLLDFIRYDVKTPKKT [CSN12] | 2.73 ± 0.046 | 2.64 ± 0.045 | 2.2 ± 0.052 | 2.99 ± 0.053
9 | DKQGWTPLFHALAEGHG [NAS6] | 2.75 ± 0.2 | 2.34 ± 0.098 | 2.99 ± 0.13 | 3.01 ± 0.17
10 | DKSTKTAEAPTLSFNFS [YOR098C/NUP1] | 3.27 ± 0.076 | 3.29 ± 0.083 | 3.24 ± 0.051 | 3.23 ± 0.084
11 | DKTAVKLDTEVKNTNAN [SWP82] | 2.5 ± 0.077 | 2.83 ± 0.076 | 2.88 ± 0.099 | 1.96 ± 0.056
12 | DLAMANSLRRVMIAEIP [RPB3] | 1.23 ± 0.061 | 1.36 ± 0.051 | 1.09 ± 0.18 | 1.44 ± 0.068
13 | DLCSLKPYVDRFAFSVI [DIS3] | 1.93 ± 0.05 | 1.87 ± 0.052 | 1.93 ± 0.065 | 2.27 ± 0.04
14 | DLEHKEDCVEEFFHLQH [QCR6] | 2.77 ± 0.1 | 2.75 ± 0.11 | 2.69 ± 0.14 | 3.37 ± 0.1
15 | DLENKFNRLKKQAHEKL [YIL149C/MLP2] | 2.75 ± 0.11 | 2.71 ± 0.067 | 2.3 ± 0.17 | 2.81 ± 0.063
16 | DLETSLSQSSSYLETLT [MED2] | 2.94 ± 0.075 | 3.12 ± 0.11 | 2.7 ± 0.077 | 2.96 ± 0.099
17 | DLFGDSNKSNSTNESNK [SSN2] | 3.2 ± 0.078 | 3.3 ± 0.08 | 3.07 ± 0.064 | 3.29 ± 0.058
18 | DLFSNNNYNSRIQLMND [MED1] | 3 ± 0.2 | 2.9 ± 0.25 | 2.93 ± 0.11 | 3.06 ± 0.13
19 | DLGITEKNDQNNDDDDN [MCD1] |  | 2.97 ± 0.14 |  | 3.41 ± 0.24
20 | DLIKFSAETLSELIRTT [FAS1] | 2.1 ± 0.076 | 2.29 ± 0.059 | 2.1 ± 0.081 | 2.12 ± 0.073
21 | DLKSLNVRDDMKPSDNI [SSN2] | 2.94 ± 0.22 | 2.59 ± 0.18 | 2.62 ± 0.16 | 2.57 ± 0.097
22 | DLLDMIQFGAKNMFEKK [ISW2] | 3.25 ± 0.14 | 3.29 ± 0.24 | 3 ± 0.16 | 
23 | DLLILTRSIKEKWLLNQ [SRB6] | 1.12 ± 0.1 | 1.35 ± 0.19 | 1.32 ± 0.2 | 1.24 ± 0.17
24 | DLLNAASIESADILCPL [IRR1] | 3.05 ± 0.2 | 2.24 ± 0.13 | 2.92 ± 0.12 | 2.79 ± 0.058
25 | DLQLLYVESDEDDTQIV [IRR1] | 3.32 ± 0.17 | 3.21 ± 0.14 | 3.07 ± 0.084 | 3.16 ± 0.12
26 | DLRIRIKLDIVVGQNQL [SNF5] | 1.38 ± 0.088 | 1.38 ± 0.086 | 1.67 ± 0.1 | 1.75 ± 0.071
27 | DLSLLGYCDDIAAMVAQ [SIR2] | 2.56 ± 0.06 | 2.08 ± 0.043 | 2.82 ± 0.052 | 2.24 ± 0.041

Row | Sequence | protein stability index (doa10∆) | protein stability index (pdr5∆) | protein stability index (san1∆) | protein stability index (ubr1∆)
28 | DLYEQIGIDPPRGVLLY [RPT3] | 2.6 ± 0.073 | 3.02 ± 0.1 | 2.8 ± 0.055 | 2.9 ± 0.08
29 | DMDGVDFNQAFEGTDDN [BRN1] | 2.97 ± 0.094 | 3.04 ± 0.091 | 3.35 ± 0.094 | 3.17 ± 0.072
30 | DNDFIINDFKKIGRENE [POP5] | 3.33 ± 0.071 | 3.38 ± 0.072 | 3.3 ± 0.057 | 3.35 ± 0.047
31 | DNDRFNVVGKLISIISS [YML103C/NUP188] | 1.3 ± 0.064 | 1.24 ± 0.073 | 1.21 ± 0.081 | 1.2 ± 0.047
32 | DNEEWMNDVINTEEVNR [LIN1] | 3.2 ± 0.071 | 3.46 ± 0.079 | 3.23 ± 0.044 | 3.39 ± 0.085
33 | DNIDYAPMRLATAALEI [YJL039C/NUP192] | 2.35 ± 0.058 | 2.44 ± 0.041 | 2.29 ± 0.077 | 2.31 ± 0.042
34 | DNKDKEGNAGGDQKTSE [YOR098C/NUP1] |  | 3.6 ± 0.17 | 3.19 ± 0.17 | 3.35 ± 0.074
35 | DNNSKAEASFTFGTKHA [YLR335W/NUP2] | 3.21 ± 0.082 | 3.09 ± 0.076 | 2.93 ± 0.049 | 3.02 ± 0.053
36 | DNNSSLNVSNTKENGDF [PRP8] | 3.17 ± 0.083 | 2.84 ± 0.084 | 2.9 ± 0.058 | 3.39 ± 0.074
37 | DNSNVMTVKLESITYQK [RGR1] | 2.88 ± 0.096 | 2.43 ± 0.1 | 3.1 ± 0.12 | 2.93 ± 0.1
38 | DPFFAQSEDLSHAVEFF [YML103C/NUP188] | 3.23 ± 0.056 | 3.17 ± 0.057 | 3.31 ± 0.045 | 3.14 ± 0.042
39 | DPKRLFEGNALIRRLVR [RPS9A] |  | 3.52 ± 0.28 |  | 
40 | DPNEVEIKKLLATNSLV [DIS3] | 2.19 ± 0.049 | 1.82 ± 0.048 | 2.35 ± 0.057 | 2.29 ± 0.046
41 | DPNEVKYLYLRAVGGEV [RPL12A] | 1.77 ± 0.073 | 1.89 ± 0.12 | 1.98 ± 0.18 | 1.53 ± 0.039
42 | DPNLELDQVGVPKSIAK [RPO21] | 3.48 ± 0.23 | 3.18 ± 0.14 | 2.44 ± 0.25 | 3.11 ± 0.16
43 | DPNLSFESSSSLPFLLR [SSN2] | 3.07 ± 0.16 | 3.19 ± 0.13 | 2.94 ± 0.1 | 2.82 ± 0.13
44 | DPQDVFNYNIFMHDPSV [SIR2] | 2.66 ± 0.08 | 2.02 ± 0.074 | 1.35 ± 0.12 | 2.69 ± 0.089
45 | DPRHIQLLGDVMTYKGE [RPO31] | 2.91 ± 0.07 | 3.17 ± 0.055 | 2.79 ± 0.063 | 3.06 ± 0.048
46 | DQNEFLLERTREIHNEA [FAS2] | 3.12 ± 0.092 | 3.13 ± 0.08 | 2.99 ± 0.063 | 3.08 ± 0.067
47 | DQRDELLEQKKSIINSQ [ITC1] | 3.08 ± 0.085 | 3.1 ± 0.075 | 3.11 ± 0.062 | 3.19 ± 0.068
48 | DQSIASGNTNGAGSAFG [YOR098C/NUP1] | 3.26 ± 0.072 | 2.49 ± 0.06 | 2.44 ± 0.079 | 2.49 ± 0.078
49 | DQVLVKGGEQISQLYSD [YJL041W/NSP1] | 3.18 ± 0.091 | 3.16 ± 0.082 | 3.2 ± 0.061 | 3.16 ± 0.091
50 | DRELNEVINQMERLDGD [SMC3] | 3.13 ± 0.086 | 3.29 ± 0.083 | 3.2 ± 0.08 | 3.1 ± 0.045
51 | DRLILDLKLPPMDAYLK [SNU114] | 3.5 ± 0.14 | 3.34 ± 0.11 | 3.01 ± 0.063 | 3.17 ± 0.063
52 | DRLSLQDRQQLLPLVVS [ECM29] | 2 ± 0.051 | 2.06 ± 0.044 | 1.64 ± 0.08 | 1.84 ± 0.037
53 | DRNLTEFDSTDTSLCIN [RRI1] | 2.98 ± 0.12 | 3 ± 0.12 | 2.59 ± 0.13 | 2.79 ± 0.067
54 | DRREKAERTMSKKETKL [SMC2] | 3.31 ± 0.13 | 3.36 ± 0.092 | 3.19 ± 0.12 | 3.39 ± 0.099
